Assay results reported in patent US12467929.

Tests used:
[1] = target: recombinant UBE3A protein (Homo sapiens (Human)) (UniProt Q05086); assay: Simoa; capture GTX + helper beads; 3E5 0.4 ug/ml; UBE3A 0.160 ng/ml
[2] = target: recombinant UBE3A protein (Homo sapiens (Human)) (UniProt Q05086); assay: Simoa; capture GTX; 3E5 0.1 ug/ml; UBE3A 0.00640 ng/ml
[3] = target: recombinant UBE3A protein (Homo sapiens (Human)) (UniProt Q05086); assay: Simoa; capture GTX; 3E5 0.2 ug/ml; UBE3A 20.0 ng/ml
[4] = target: recombinant UBE3A protein (Homo sapiens (Human)) (UniProt Q05086); assay: Simoa head-to-head, Table 11; capture MS 2F6; UBE3A 0.032 ng/ml
[5] = target: recombinant UBE3A protein (Homo sapiens (Human)) (UniProt Q05086); assay: Simoa; capture GTX; 3E5 0.8 ug/ml; UBE3A 0.00640 ng/ml
[6] = target: recombinant UBE3A protein (Homo sapiens (Human)) (UniProt Q05086); assay: Simoa; capture GTX + helper beads; 3E5 0.1 ug/ml; UBE3A 0.00128 ng/ml
[7] = target: recombinant UBE3A protein (Homo sapiens (Human)) (UniProt Q05086); assay: Simoa; capture GTX; 3E5 0.2 ug/ml; UBE3A 0.160 ng/ml
[8] = target: recombinant UBE3A protein (Homo sapiens (Human)) (UniProt Q05086); assay: Simoa; capture GTX; SBG 150 pm; UBE3A 0.160 ng/ml
[9] = target: recombinant UBE3A protein (Homo sapiens (Human)) (UniProt Q05086); assay: Simoa; capture GTX, no helper beads; 3E5 0.2 ug/ml; UBE3A 20.0 ng/ml
[10] = target: recombinant UBE3A protein (Homo sapiens (Human)) (UniProt Q05086); assay: 3-step Simoa; capture MS 2F6; UBE3A 0.010 ng/ml
[11] = target: recombinant UBE3A protein (Homo sapiens (Human)) (UniProt Q05086); assay: Simoa; capture GTX, no helper beads; 3E5 0.4 ug/ml; UBE3A 0.160 ng/ml
[12] = target: recombinant UBE3A protein (Homo sapiens (Human)) (UniProt Q05086); assay: Simoa; capture GTX, no helper beads; 3E5 0.2 ug/ml; UBE3A 0.0320 ng/ml
[13] = target: recombinant UBE3A protein (Homo sapiens (Human)) (UniProt Q05086); assay: Simoa; capture GTX; SBG 75 pm; UBE3A 0.00640 ng/ml
[14] = target: recombinant UBE3A protein (Homo sapiens (Human)) (UniProt Q05086); assay: Simoa; capture GTX; SBG 100 pm; UBE3A 0.0320 ng/ml
[15] = target: recombinant UBE3A protein (Homo sapiens (Human)) (UniProt Q05086); assay: Simoa; capture GTX; 3E5 0.2 ug/ml; UBE3A 0.00640 ng/ml
[16] = target: recombinant UBE3A protein (Homo sapiens (Human)) (UniProt Q05086); assay: Simoa head-to-head, Table 10; capture MS 2F6; UBE3A 4.00 ng/ml
[17] = target: recombinant UBE3A protein (Homo sapiens (Human)) (UniProt Q05086); assay: Simoa; capture GTX; SBG 100 pm; UBE3A 4.00 ng/ml
[18] = target: recombinant UBE3A protein (Homo sapiens (Human)) (UniProt Q05086); assay: Simoa; capture GTX; 3E5 0.8 ug/ml; UBE3A 0.800 ng/ml
[19] = target: recombinant UBE3A protein (Homo sapiens (Human)) (UniProt Q05086); assay: 3-step Simoa; capture GTX; UBE3A 31.3 ng/ml
[20] = target: recombinant UBE3A protein (Homo sapiens (Human)) (UniProt Q05086); assay: 2-step Simoa; capture GTX; UBE3A 500 ng/ml

Sequence of UniProt Q05086 (Q05086 whole entry): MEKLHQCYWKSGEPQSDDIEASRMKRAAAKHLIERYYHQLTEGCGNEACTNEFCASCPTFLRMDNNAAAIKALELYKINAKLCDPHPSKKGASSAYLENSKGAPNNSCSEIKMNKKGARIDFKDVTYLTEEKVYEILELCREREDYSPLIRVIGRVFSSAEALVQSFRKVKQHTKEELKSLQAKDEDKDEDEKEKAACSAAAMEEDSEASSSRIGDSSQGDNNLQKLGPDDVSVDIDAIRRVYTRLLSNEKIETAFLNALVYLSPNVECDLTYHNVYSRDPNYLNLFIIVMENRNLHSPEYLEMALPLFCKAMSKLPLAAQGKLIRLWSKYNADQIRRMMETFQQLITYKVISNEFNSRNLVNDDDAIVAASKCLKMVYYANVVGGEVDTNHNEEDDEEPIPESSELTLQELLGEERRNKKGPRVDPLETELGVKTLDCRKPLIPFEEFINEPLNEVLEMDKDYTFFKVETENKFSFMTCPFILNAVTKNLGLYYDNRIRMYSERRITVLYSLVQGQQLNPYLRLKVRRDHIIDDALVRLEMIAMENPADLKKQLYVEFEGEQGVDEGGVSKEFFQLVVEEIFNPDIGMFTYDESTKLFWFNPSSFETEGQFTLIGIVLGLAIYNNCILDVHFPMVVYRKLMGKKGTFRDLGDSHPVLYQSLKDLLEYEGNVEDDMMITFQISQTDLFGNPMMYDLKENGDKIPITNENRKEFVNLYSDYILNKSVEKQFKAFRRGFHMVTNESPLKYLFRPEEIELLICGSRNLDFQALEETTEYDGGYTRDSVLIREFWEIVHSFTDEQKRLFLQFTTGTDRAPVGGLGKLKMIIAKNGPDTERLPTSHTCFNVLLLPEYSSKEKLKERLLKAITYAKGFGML

In the case of “anti-UBE3A antibody 3E5 (SAB1404508-100 ug, Millipore-Sigma)”, the AEB1 [1] is reported as 0.0913, the AEB2 [1] is reported as 0.105 and the Average AEB [1] is reported as 0.0983. The Signal to Background [1] was 5.03, the AEB1 [2] was 0.0251 and the AEB2 [2] was 0.0238. For the same substance, the AEB3 [2] was 0.0256, the Average AEB [2] was 0.0248 and the Signal to Background [2] was 1.29. It also gave an AEB1 [3] of 6.38, an AEB2 [3] of 6.95 and an AEB3 [3] of 6.77. The Average AEB [3] was 6.7, the Signal to Background [3] was 171 and the AEB1 [4] was 0.0032. It also gave an AEB2 [4] of 0.0043, an Ave AEB [4] of 0.0037 and a Signal to Background [4] of 0.986. The AEB1 [5] was 0.114, the AEB2 [5] was 0.127 and the AEB3 [5] was 0.117. For the same substance, the Average AEB [5] was 0.12, the Signal to Background [5] was 0.976 and the AEB1 [6] was 0.0065. It also gave an AEB2 [6] of 0.0083, an Average AEB [6] of 0.0074 and a Signal to Background [6] of 1.29. It also gave an AEB1 [7] of 0.125, an AEB2 [7] of 0.123 and an AEB3 [7] of 0.121. For the same substance, the Average AEB [7] was 0.123, the Signal to Background [7] was 3.14 and the AEB1 [8] was 0.0773. The AEB2 [8] was 0.0769, the Average AEB [8] was 0.0771 and the Signal to Background [8] was 5.82. For the same substance, the AEB1 [9] was 4.96, the AEB2 [9] was 5 and the Average AEB [9] was 4.98. It also gave a Signal to Background [9] of 514, an AEB1 [10] of 0.0035 and an AEB2 [10] of 0.0048. For the same substance, the Ave AEB [10] was 0.0042, the Signal to Background [10] was 1.06 and the AEB1 [11] was 0.1. For the same substance, the AEB2 [11] was 0.108, the Average AEB [11] was 0.104 and the Signal to Background [11] was 5.33. For the same substance, the AEB1 [12] was 0.0229, the AEB2 [12] was 0.0244 and the Average AEB [12] was 0.0236. It also gave a Signal to Background [12] of 2.44, an AEB1 [13] of 0.0059 and an AEB2 [13] of 0.0047. It also gave an AEB3 [13] of 0.0074, an Average AEB [13] of 0.006 and a Signal to Background [13] of 1.36. The AEB1 [14] was 0.0199, the AEB2 [14] was 0.0201 and the AEB3 [14] was 0.0192. For the same substance, the Average AEB [14] was 0.0197, the Signal to Background [14] was 2.35 and the AEB1 [15] was 0.0421. The AEB2 [15] was 0.0466, the AEB3 [15] was 0.0433 and the Average AEB [15] was 0.044. The Signal to Background [15] was 1.12, the AEB1 [16] was 0.132 and the AEB2 [16] was 0.127. The Ave AEB [16] was 0.13, the Signal to Background [16] was 9.58 and the AEB1 [17] was 0.739. The AEB2 [17] was 0.78, the AEB3 [17] was 0.707 and the Average AEB [17] was 0.742. The Signal to Background [17] was 88.5, the AEB1 [18] was 0.589 and the AEB2 [18] was 0.605. The AEB3 [18] was 0.615, the Average AEB [18] was 0.603 and the Signal to Background [18] was 4.92.
For NB500-240 (Novus) (antibody), the AEB1 [19] was 0.0425, the AEB2 [19] was 0.046 and the Ave AEB [19] was 0.0443. It also gave a Signal to Background [19] of 20.3, an AEB1 [20] of 0.303 and an AEB2 [20] of 0.308. For the same substance, the Ave AEB [20] was 0.305 and the Signal to Background [20] was 93.4.
